Literature values, collected in publication PMC11449013.
Where two headings read alike, the source gives them in different places.

Molecular target: His128 (UniProt position 179, FICPCHGSQYN)

Cytochrome b6f complex Rieske iron-sulfur protein (ISP, PetC) (Spinacia oleracea (residue numbering; the article does not state the species in which the quoted values were measured))
pKa (2Fe2S cluster oxidised): ∼6.2 | pKa (2Fe2S cluster reduced): ∼8
